IC50 data for 50 molecules are collected here from US20090291081A1 (AbbVie / Abbott, published 2009).

Positions count from the first letter of the chain named.

The chains are these.
T1: human IL-1α (human, UniProt P01583 113-271)
T1 construct: also called IL-1alpha; hIL-1α
T1 sequence (looked up): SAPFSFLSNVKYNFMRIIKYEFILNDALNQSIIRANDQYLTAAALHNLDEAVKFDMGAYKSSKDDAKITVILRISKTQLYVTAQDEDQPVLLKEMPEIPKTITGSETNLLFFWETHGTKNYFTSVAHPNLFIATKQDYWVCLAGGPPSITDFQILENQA

B1: ABT1-137 (other)
VH: EVQLLESGGGLVQPGGSLRLSCAASGFTFERYWMAWVRQAPGKGLEWVSNINLTGSATYYADSVKGRFTISRDNSKNTLYLQMNSLRAEDTAVYYCAKGAFQFDYWGQGTLVTVSS
notes: VH dAb
B2: ABT1-130 (other)
VL: DIQMTQSPSSLSASVGDRVTITCRASQEIGLWLSWYQQKSGKAPKLLIYRHSSSQSGVPSRFSGSGSGTDFTLTISSLQPEDFATYYCQQTYKAPFTFGQGTKVEIKR
notes: VK dAb
B3: ABT1-123 (other)
VL: DIQMTQSPSSLSASVGDRVTITCRASQSIWTELKWYQQKPGKAPKLLIYGASLLQSGVPSRFSGSGSGTDFTLTISSLQPEDFATYYCQQFAYHPHTFGQGTKVEIKR
notes: VK dAb
B4: ABT1-157 (other)
VL: DIQMTQSPSSLSASVGDRVTITCRASQSISSYLNWYQQKPGKAPKLLIGGVSGLQSGVPSRFSGSGSGTDFTLTISSLQPEDFATYYCMQWSRPPRTFGQGTKVEIKR
notes: VK dAb
B5: ABT1-167 (other)
VL: B4 VL with V51L, S92W, P94Y, R96P
notes: VK dAb
B6: ABT1-170 (other)
VL: B4 VL with V51R, M89K, S92Y, P94Y, R96S
notes: VK dAb
B7: ABT1-168 (other)
VL: B4 VL with V51L, M89L, S92F, R93S, P94E, R96A
notes: VK dAb
B8: ABT1-171 (other)
VL: B4 VL with V51R, S92F
notes: VK dAb
B9: ABT1-166 (other)
VL: B4 VL with V51L, M89G, S92A, P94A, R96M
notes: VK dAb
B10: ABT1-150 (other)
VL: DIQMTQSPSSLSASVGDRVTITCRASQSISSYLNWYQQKPGKAPKLLIGGVSGLQSGVPSRFSGSGSGTDFTLTISSLQPEDFATYYCMQWWRWPSTFGQGTKVEIKRAAAEQKLISEED
notes: VK dAb
B11: ABT1-151 (other)
VL: B10 VL with V51R, M89G, W92Y, W94H, S96A
notes: VK dAb
B12: ABT1-152 (other)
VL: B10 VL with V51R, S76G, W92Y, W94A
notes: VK dAb
B13: ABT1-132 (other)
VL: DIQMTQSPSSLSASVGDRVTITCRASQNIATALLWYQQKPGKAPRLLIYDSSQLQSGVPSRFSGSGSGTDFTLTISSLQPEDFATYYCQQMYWVPFTFGQGTKVEIKR
notes: VK dAb
B14: ABT1-95-111 (other)
VL: DIQMTQSPSSLSASVGDRVTITCRASQPIVRNLRWYQQKPGKAPKLLIYSSSYLEDGVPSRFSGSGSGTDFTLTISSLQPEDFATYHCQQGYRWPVTFGQGTKVEIKR
notes: VK dAb
B15: ABT1-95-125 (other)
VL: B14 VL with D56P, V96L
notes: VK dAb
B16: ABT1-95-123 (other)
VL: B14 VL with D56P, R93A
notes: VK dAb
B17: ABT1-95-150 (other)
VL: B14 VL with P28H, D56P
notes: VK dAb
B18: ABT1-95-144 (other)
VL: B14 VL with E55S, D56P
notes: VK dAb
B19: ABT1-95-155 (other)
VL: B14 VL with Y49T, D56P, F83S
notes: VK dAb
B20: ABT1-131 (other)
VL: DIQMTQSPSSLSASVGDRVTITCRASQRINGNLRWYQQKPGKAPKLLIYSVSQLQSGVPSRFSGSGSGTDFTLTISSLQPEDFATYYCQQGYDWPPTFGQGTKVETKR
notes: VK dAb
B21: ABT1-95-127 (other)
VL: B14 VL with D56P, S76G, V96I
notes: VK dAb
B22: ABT1-95-147 (other)
VL: B14 VL with R24W, P28G, D56P
notes: VK dAb
B23: ABT1-141-54 (other)
VL: DIQMTQSPSSLSASVGDRVTITCRASQWIQKQLAWYQQKPGKAPKLLIYSSSHLQSGVPSRFSGSGSGTDFTLTISSLQPEDFATYYCQQHLRVPMTFGQGTKVEIKR
notes: VK dAb
B24: ABT1-95-124 (other)
VL: B14 VL with D56P, R93M
notes: VK dAb
B25: ABT1-95-142 (other)
VL: B14 VL with V30T, D56P
notes: VK dAb
B26: ABT1-154 (other)
VL: DIQMTQSPSSLSASVGDRVTITCRASTEIVRNLRWYQQKPGKAPKLLISGVSGLQSGVPSRFSGSGSGTDFTLTISSLQPEDFATYYCVQGYSWPVTFGQGTKVEIKR
notes: VK dAb
B27: ABT1-95-112 (other)
VL: B14 VL with D56N
notes: VK dAb
B28: ABT1-95-145 (other)
VL: B14 VL with R18H, E55V, D56P
notes: VK dAb
B29: ABT1-95-114 (other)
VL: B14 VL with D56V
notes: VK dAb
B30: ABT1-95-158 (other)
VL: B14 VL with Y49F, D56P
notes: VK dAb
B31: ABT1-95-140 (other)
VL: B14 VL with P28G, D56P
notes: VK dAb
B32: ABT1-95-146 (other)
VL: B14 VL with P28N, D56P
notes: VK dAb
B33: ABT1-95-151 (other)
VL: B14 VL with S26G, D56P, G99D
notes: VK dAb
B34: ABT1-95-156 (other)
VL: B14 VL with Y49A, D56P, Q89L
notes: VK dAb
B35: ABT1-95-130 (other)
VL: B14 VL with D56P, H87Y, R93L
notes: VK dAb
B36: ABT1-160 (other)
VL: B26 VL with K45N, S49W, V51G, G53T, W94L
notes: VK dAb
B37: ABT1-95-129 (other)
VL: B14 VL with D56P, Q79H, F83L
notes: VK dAb
B38: ABT1-95-153 (other)
VL: B14 VL with V30I, D56P, D70G
notes: VK dAb
B39: ABT1-95-141 (other)
VL: B14 VL with V30L, D56P
notes: VK dAb
B40: ABT1-95-128 (other)
VL: B14 VL with D56P, V96G
notes: VK dAb
B41: ABT1-95-152 (other)
VL: B14 VL with S26G, V30P, D56P
notes: VK dAb
B42: ABT1-141-27 (other)
VL: B23 VL with H53Y, H91G, V94Q
notes: VK dAb
B43: ABT1-95-154 (other)
VL: B14 VL with Y49S, D56P
notes: VK dAb
B44: ABT1-141-10 (other)
VL: B23 VL with H53Y, H91S, M96F
notes: VK dAb
B45: ABT1-95-120 (other)
VL: B14 VL with V30A, D56P, G91V
notes: VK dAb
B46: ABT1-95-159 (other)
VL: B14 VL with V30A, D56P, G91V
notes: VK dAb
B47: ABT1-141-35 (other)
VL: B23 VL with S51A, H53W
notes: VK dAb
B48: ABT1-95-126 (other)
VL: B14 VL with D56P, V96S
notes: VK dAb
B49: ABT1-95-157 (other)
VL: B14 VL with Y49T, D56P, T69A
notes: VK dAb
B50: ABT1-95-143 (other)
VL: B14 VL with Y49T, D56P
notes: VK dAb

By IC50 is commonly meant the concentration that gives 50% inhibition.

The target of the test is T1, human IL-1α. Description: Table 62 IC50; RBA presumed.
For the molecule B1, the IC50 was 200 nM.
On to B2, for which the IC50 came out at 300 nM.
Next, B3: above 500 nM; B4: 300 nM; B5: above 1000 nM.
For B6, the IC50 is above 1000 nM.
The molecule B7 registered an IC50 above 1000 nM.
For the molecule B8, the half-inhibitory concentration (IC50) is above 1000 nM.
Next, B9: above 1000 nM; B10: 150 nM; B11: 200 nM.
The molecule B12 registered an IC50 of 300 nM.
In turn, B13 returned a half-maximal inhibitory concentration (IC50) of 300 nM.
Next, B14: below 0.1 nM; B15: 0.2 nM; B16: 0.1 nM.
In turn, B17 displayed an IC50 of 0.2 nM.
Turning to B18, the 50% inhibitory concentration (IC50) is 0.5 nM.
Take B19: the IC50 came out at 10 nM.
B20 gave an IC50 of 80 nM.
The molecule B21 came in with an IC50 of 0.1 nM.
Consider B22, for which the midpoint of inhibition, the IC50, lay at 0.2 nM.
The molecule B23 registered an IC50 of 3 nM.
B24 yielded an IC50 of 0.2 nM.
Under B25 stands 0.5 nM; under B26, above 1000 nM.
In turn, B27 gave a half-inhibitory concentration (IC50) of 0.1 nM.
Molecule B28 came in with an IC50 of 0.8 nM.
Next, B29: 0.2 nM; B30: 0.5 nM; B31: 0.2 nM.
B32 registered an IC50 of 0.8 nM.
Consider B33, for which half-maximal inhibition (IC50) was put at 0.2 nM.
Next, B34: 10 nM; B35: above 1 nM.
B36 had an IC50 of 300 nM.
Next, B37: above 10 nM; B38: 0.5 nM; B39: 1 nM.
Next, B40: above 1 nM; B41: 0.8 nM.
Molecule B42 showed an IC50 of 20 nM.
As for B43, the IC50 is above 10 nM.
As to B44, the IC50 worked out at 30 nM.
Molecule B45 came in with a half-maximal inhibitory concentration (IC50) of 0.1 nM.
For the molecule B46, the midpoint of inhibition, the IC50, lay at 0.1 nM.
Consider B47, for which the IC50 came to 10 nM.
Molecule B48 showed an IC50 of 0.8 nM.
With B49, half-maximal inhibition (IC50) required 10 nM.
B50 gave an IC50 of 10 nM.
